Positions count from the first letter of the chain named. Names may count otherwise.
B1: A2-3B06: anti-α5β1 antibody, VH SEQ ID NO:42, VL SEQ ID NO:43 (antibody, V domains shown)
VH: QVQLKESGPGLVAPSQSLSITCTISGFSLTTYGVHWVRQPPGKGLEWLVVIWSDGSTTYNSALKSRLNITKDNSKSQVFLKMNSLQTDDTAMYYCVRHGGLLRRDAMDYWGQGTSVTVSS
VL: QIVLTQSPAIMSASLGERVTMTCTASSSVSSNSFHWYQQKPGSSPKLWLYSTSNLASGVPARFSGSGSGTSYSLTISSMEAEDAATYYCHQYLRSPPTFGGGTKLEIK
modifications: A2-3B06 VH Sequence; A2-3B06 VL Sequence
B2: A2-9A11: hybridoma clone positive on K562 cells (antibody, V domains shown)
VH: B1 VH
VL: B1 VL
B3: A2-6C10: hybridoma clone positive on K562 cells (antibody, V domains shown)
VH: B1 VH
VL: B1 VL
B4: A2-8H11: hybridoma clone positive on K562 cells (antibody, V domains shown)
VH: B1 VH
VL: B1 VL
B5: A-15B08-T62A: human IgG4 chimera variant of A-15B08, Thr62 to Ala in CDRH2; VH SEQ ID NO:135, VL SEQ ID NO:26 (antibody, V domains shown)
VH: QVQLKESGPGLVAPSQSLSITCTISGFSLTSYGVHWVRQPPGKGLEWLVVIWSDGSTTYNSALKSRLSISKDNSKSQVFFKMNSLQTDDTAMYYCARHYDYDGDWFAYWGQGTLVTVSA
VL: B1 VL with S28R, F34L, L49I
modifications: human IgG4 constant regions; A-15B08-T62A VH Sequence; A-15B08 VL Sequence

Key:
[1] = molecular target: T1, recombinant human α5β1 integrin (rh-α5β1) (Homo sapiens, UniProt P05556+P08648); assay: Plate-based ELISA reactivity to rh-α5β1; type: binding; conditions: selected for further characterization among α5 specific hybridomas (28 selected)
T1 construct: purchased R&D Systems 3230-A5
T1 sequence (P08648 42-894 limits assumed): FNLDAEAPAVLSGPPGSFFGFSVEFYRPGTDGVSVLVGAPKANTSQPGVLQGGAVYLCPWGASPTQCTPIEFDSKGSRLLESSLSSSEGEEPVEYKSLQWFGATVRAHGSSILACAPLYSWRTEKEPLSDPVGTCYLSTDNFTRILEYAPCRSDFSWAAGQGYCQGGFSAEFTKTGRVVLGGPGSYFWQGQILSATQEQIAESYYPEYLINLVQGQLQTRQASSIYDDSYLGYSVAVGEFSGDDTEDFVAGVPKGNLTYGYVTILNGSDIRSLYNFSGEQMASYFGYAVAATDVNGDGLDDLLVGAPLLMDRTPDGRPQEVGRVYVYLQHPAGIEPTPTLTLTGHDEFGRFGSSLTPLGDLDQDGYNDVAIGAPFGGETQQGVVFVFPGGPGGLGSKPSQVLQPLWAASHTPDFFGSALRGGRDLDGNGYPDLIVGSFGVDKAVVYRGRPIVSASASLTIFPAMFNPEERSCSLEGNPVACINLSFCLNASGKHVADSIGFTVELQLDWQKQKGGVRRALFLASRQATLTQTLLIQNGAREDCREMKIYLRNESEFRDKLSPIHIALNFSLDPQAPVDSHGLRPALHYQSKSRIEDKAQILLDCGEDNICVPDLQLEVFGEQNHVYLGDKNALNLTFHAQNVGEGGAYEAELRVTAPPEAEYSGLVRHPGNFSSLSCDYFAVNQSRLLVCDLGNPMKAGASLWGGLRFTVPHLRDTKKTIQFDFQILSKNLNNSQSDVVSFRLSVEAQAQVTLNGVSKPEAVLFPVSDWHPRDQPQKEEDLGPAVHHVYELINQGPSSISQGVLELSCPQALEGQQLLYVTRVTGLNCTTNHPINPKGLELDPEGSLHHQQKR
T1 sequence (P08648 895-995 limits assumed): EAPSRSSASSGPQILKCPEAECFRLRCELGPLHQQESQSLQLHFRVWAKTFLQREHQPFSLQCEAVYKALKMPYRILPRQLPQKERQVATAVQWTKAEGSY
T1 sequence (P05556 21-728 limits assumed): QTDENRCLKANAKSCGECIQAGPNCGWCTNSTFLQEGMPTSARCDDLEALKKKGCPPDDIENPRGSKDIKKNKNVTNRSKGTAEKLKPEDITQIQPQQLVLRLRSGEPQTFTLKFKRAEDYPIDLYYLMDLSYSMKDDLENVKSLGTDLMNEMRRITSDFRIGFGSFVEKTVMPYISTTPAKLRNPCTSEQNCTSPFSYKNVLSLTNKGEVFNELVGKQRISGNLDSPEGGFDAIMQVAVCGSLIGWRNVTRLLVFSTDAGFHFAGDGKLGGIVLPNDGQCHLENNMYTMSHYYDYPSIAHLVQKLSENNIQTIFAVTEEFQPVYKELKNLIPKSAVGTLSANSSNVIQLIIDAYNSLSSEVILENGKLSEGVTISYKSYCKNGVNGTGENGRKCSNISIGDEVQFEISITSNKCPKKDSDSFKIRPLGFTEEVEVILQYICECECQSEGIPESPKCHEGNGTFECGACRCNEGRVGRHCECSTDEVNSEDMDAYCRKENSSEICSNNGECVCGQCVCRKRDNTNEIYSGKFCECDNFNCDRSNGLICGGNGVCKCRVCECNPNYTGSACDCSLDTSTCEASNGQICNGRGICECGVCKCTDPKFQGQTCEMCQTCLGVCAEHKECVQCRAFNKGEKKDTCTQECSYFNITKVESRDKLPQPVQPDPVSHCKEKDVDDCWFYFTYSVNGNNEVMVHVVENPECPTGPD
Experimental: (§1) The 249 positive hybridoma supernatants selected as described in Example 1 were screened for reactivity to rh-α5β1 in a plate-based ELISA. Immulon4 HBX ELISA 96-well plates (Thermo Fisher Scientific, Waltham, MA, cat. no. 3855) were coated with rh-α5β1 (R&D Systems, Minneapolis, MN 55413, cat. no. 3230-A5), at 1 μg/mL in PBS supplemented with 0.5 mM MgCl2, MnCl2 and CaCl2 and incubated overnight at 4° C. Plates were washed 3 times with Wash Buffer (1× Tris Buffered Saline containing 0.05% Tween20), blocked with 2% BSA in 1×TBS (made from 10× Thermo Scientific Blocker BSA (10×) in TBS; Thermo Fisher Scientific, Waltham, MA, cat. no. 37520) for 2 hours at room temperature (RT) then incubated with hybridoma supernatants diluted 1:10 with Standard Diluent (2% BSA, 1×TBS, 0.05% Tween20). Following a 1 hour incubation at RT, wells were washed 3 times, incubated with biotinylated goat anti-mouse secondary antibody at 1:8000 dilution (Invitrogen, Carlsbad, CA, cat. no. 62-6540) for 1 hour, washed 3 times, then incubated for 30 minutes with poly-HRP Streptavidin (Thermo Fisher Scientific, Waltham, MA, cat. no. N200), washed 4 times, incubated with TMB (Thermo Fisher Scientific, Waltham, MA, cat. no. N301) for 5-10 minutes, followed by addition of ELISA Stop Solution (Invitrogen, Carlsbad, CA, cat. no. SS04). Absorbance 450 nm was measured.

[2] = molecular target: T2, recombinant mouse α5β1 (rm-α5β1) (Mus musculus, UniProt P09055+P11688); assay: Plate-based ELISA cross-reactivity to rm-α5β1; type: binding; conditions: hybridoma supernatant diluted 1:10; plate coated with rm-α5β1
T2 construct: purchased R&D Systems 7728-A5
T2 sequence (P11688 45-898 limits assumed): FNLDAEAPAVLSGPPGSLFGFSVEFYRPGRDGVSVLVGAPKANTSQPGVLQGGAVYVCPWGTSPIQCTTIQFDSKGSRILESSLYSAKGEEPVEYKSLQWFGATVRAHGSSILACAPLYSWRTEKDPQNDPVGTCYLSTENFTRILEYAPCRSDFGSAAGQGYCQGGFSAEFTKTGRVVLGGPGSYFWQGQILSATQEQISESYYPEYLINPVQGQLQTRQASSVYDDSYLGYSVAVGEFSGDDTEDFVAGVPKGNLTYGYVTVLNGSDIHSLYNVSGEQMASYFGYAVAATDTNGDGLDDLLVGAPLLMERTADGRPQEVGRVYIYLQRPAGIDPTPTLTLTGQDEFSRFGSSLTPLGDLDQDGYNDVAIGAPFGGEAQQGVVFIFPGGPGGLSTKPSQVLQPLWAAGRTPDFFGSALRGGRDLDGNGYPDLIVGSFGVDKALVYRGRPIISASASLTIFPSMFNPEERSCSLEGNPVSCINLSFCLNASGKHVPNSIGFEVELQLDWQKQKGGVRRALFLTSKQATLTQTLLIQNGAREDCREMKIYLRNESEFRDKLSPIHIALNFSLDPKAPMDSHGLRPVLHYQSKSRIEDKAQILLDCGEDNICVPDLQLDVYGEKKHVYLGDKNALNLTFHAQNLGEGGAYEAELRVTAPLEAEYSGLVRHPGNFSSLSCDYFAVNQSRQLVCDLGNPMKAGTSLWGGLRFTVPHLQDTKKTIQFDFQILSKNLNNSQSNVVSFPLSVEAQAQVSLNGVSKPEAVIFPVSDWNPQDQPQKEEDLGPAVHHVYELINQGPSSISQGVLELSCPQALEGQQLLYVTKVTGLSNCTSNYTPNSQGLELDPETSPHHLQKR
T2 sequence (P11688 899-999 limits assumed): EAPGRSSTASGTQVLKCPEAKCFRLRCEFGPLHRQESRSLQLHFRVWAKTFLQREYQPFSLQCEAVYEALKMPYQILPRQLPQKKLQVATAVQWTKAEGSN
T2 sequence (P09055 21-728 limits assumed): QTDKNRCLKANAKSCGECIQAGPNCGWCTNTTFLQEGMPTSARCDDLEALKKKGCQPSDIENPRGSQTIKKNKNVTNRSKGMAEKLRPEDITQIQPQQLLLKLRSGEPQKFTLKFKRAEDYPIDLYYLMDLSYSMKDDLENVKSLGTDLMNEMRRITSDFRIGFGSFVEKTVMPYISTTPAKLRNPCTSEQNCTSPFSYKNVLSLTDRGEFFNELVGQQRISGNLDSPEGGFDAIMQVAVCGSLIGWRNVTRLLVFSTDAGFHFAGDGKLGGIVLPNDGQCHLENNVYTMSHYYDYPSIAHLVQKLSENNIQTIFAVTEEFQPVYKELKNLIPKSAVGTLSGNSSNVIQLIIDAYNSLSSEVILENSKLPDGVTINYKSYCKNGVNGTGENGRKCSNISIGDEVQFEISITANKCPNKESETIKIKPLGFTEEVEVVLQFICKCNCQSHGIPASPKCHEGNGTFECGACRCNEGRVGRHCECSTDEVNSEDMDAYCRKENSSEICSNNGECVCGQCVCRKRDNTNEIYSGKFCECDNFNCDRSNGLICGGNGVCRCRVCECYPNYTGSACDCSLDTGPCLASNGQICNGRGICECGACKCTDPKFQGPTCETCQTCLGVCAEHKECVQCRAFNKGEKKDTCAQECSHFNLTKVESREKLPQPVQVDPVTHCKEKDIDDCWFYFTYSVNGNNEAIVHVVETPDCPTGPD
Experimental: as §1
In addition, hybridomas were tested for cross-reactivity to recombinant mouse α5β1 (rm-α5β1; R&D Systems, Minneapolis, MN 55413; cat. no. 7728-A5) using the same protocol as above except that the plates were coated with rm-α5β1.

rh-α4β1 = molecular target: T3, rh-α4β1 (Homo sapiens, UniProt P05556+P13612); assay: Plate-based ELISA reactivity to rh-α4β1 (α5 subunit specificity); type: binding; conditions: hybridoma supernatant diluted 1:10; plate coated with rh-α4β1
T3 construct: purchased R&D Systems 3230-A5 & 5668-A4
T3 sequence (P13612 34-977 limits assumed): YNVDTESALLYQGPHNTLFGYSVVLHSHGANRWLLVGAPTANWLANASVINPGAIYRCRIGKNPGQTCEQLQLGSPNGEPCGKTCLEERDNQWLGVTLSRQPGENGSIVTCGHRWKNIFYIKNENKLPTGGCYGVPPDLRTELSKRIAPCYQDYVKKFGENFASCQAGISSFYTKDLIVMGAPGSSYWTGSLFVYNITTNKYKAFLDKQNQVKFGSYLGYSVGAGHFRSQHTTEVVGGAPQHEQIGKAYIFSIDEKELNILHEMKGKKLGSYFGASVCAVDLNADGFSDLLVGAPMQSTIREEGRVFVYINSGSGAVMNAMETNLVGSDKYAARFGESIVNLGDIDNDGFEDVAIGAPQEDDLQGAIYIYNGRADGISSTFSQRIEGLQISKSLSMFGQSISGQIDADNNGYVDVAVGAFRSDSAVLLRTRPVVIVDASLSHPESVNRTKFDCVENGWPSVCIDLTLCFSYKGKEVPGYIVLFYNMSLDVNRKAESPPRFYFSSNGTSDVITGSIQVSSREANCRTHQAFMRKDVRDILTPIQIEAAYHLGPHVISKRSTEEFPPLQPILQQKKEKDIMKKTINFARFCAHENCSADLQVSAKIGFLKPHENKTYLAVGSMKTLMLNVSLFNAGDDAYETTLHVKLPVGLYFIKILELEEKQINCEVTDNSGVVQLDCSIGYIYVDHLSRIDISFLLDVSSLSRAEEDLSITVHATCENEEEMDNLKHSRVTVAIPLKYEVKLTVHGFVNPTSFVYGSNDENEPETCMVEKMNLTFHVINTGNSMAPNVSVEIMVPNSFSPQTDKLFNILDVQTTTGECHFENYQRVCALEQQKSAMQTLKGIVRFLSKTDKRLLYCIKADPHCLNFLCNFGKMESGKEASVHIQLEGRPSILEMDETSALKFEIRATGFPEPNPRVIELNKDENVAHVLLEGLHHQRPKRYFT
T3 sequence (P05556 21-728 limits assumed): as the sequence (P05556 21-728 limits assumed) above
Experimental: as §1
In parallel the 249 hybridomas were screened for specificity to the human α5 subunit by testing for reactivity to rh-α4β1 (R&D Systems, Minneapolis, MN 55413; cat. no. 3230-A5 & 5668-A4). Any hybridoma that reacted to both rh-α4β1 and rh-α5β1 is likely to be β1 subunit specific and not considered α5 specific. Using the protocol described above, 29 hybridoma supernatants reacted strongly (>1.0 Absorbance 450 nm) with rh-α4β1 and were not considered to be α5 specific.

rh-α5β1 = rh-α5β1 (Homo sapiens, UniProt P05556+P08648); assay: Competition binding studies by Biolayer Interferometry (epitope groups); conditions: for Response (nm) / % Response: secondary mAb pre-mixed with 20 nM rh-α5β1; for % Response: relative to antigen alone
Chain of rh-α5β1 (P08648 42-894 limits assumed): as the sequence (P08648 42-894 limits assumed) above
Chain of rh-α5β1 (P08648 895-995 limits assumed): as the sequence (P08648 895-995 limits assumed) above
Chain of rh-α5β1 (P05556 21-728 limits assumed): as the sequence (P05556 21-728 limits assumed) above
Experimental: Epitope analysis via competition binding studies was performed using Biolayer Interferometry (BLI) on the 6 antibodies selected as described in Example 5. The anti-α5β1 FN blocking antibodies A2-7A05, C-14D12 and A-15B08 were immobilized on sensors and incubated with each of the other antibodies that had been preincubated with rh-α5β1, to determine whether this antibody-antigen association prevents or allows binding to the antibody on the sensor. The magnitude of observed binding (response) was compared to binding of antigen alone under the same conditions. If the overall response was greater than 120% of antigen binding alone, then the antibodies can pair with each other. If response was less than 80% of response of antigen binding alone, then the antibodies block each other. The protocol was as follows: preincubate the panel of antibodies with antigen (1 hr). Equilibrate the sensor (30 seconds (s))-->Load lead Ab on the sensor (700s)--->Quench (480s)--->Read baseline (480s)-->measure preincubated Ab+Ag association with loaded sensor (600s).

[3] = molecular target: T4, binding of α5β1 integrin to fibronectin (FN) (Homo sapiens, UniProt P05556+P08648); assay: Quantitative FN inhibition (FN-blocking) assay in ELISA format; type: biochemical; conditions: by ELISA
T4 construct: purchased Acro Biosystems IT1-H52W5
T4 sequence (P08648 42-894 limits assumed): as the sequence (P08648 42-894 limits assumed) above
T4 sequence (P08648 895-995 limits assumed): as the sequence (P08648 895-995 limits assumed) above
T4 sequence (P05556 21-728 limits assumed): as the sequence (P05556 21-728 limits assumed) above
Excerpt: To determine whether the 9 unique hybridoma clones selected as described in Example 4 were able to inhibit the binding of α5β1 integrin to fibronectin (FN), the antibodies were first purified from hybridoma supernatants by Protein A chromatography, protein concentrations measured by BCA assay (Pierce™ BCA Protein Assay Kit; Thermo Fisher Scientific, Waltham, MA, cat. no. 23225) and then tested in a quantitative FN inhibition assay in an ELISA format.
Immulon4 HBX ELISA 96-well plates were coated with FN by incubation overnight at 4° C. with 2.5 μg/mL human FN (R&D Systems, Minneapolis, MN 55413, cat. no. 1918-FN) in 1×PBS (0.01M phosphate buffer and 0.154M NaCl, pH 7.4). Plates were then washed 3 times with Wash Buffer (1× Tris Buffered Saline containing 0.05% Tween20), blocked with 2% BSA in 1×TBS for 2 hours at room temperature (RT). Antibodies were diluted in Standard Diluent (2% BSA, 1×TBS, 0.05% Tween20) containing 0.1 μg/mL rh-α5β1-6×His tagged protein (Acro Biosystems, Newark, DE, cat. no. IT1-H52W5), to generate an 11 point 1:3 antibody dilution series ranging from 10,000 ng/mL to 0.17 ng/mL. Isotype control antibody (Control Ab; Ms IgG2a EMD Millipore Corp, Billerica, MA, cat. no. PP102) was used to normalize data across different assay runs. For the assays, 100 uL of the antibody dilution series/His-tagged-α5β1 mixture was added to the wells after the blocking solution was removed and wells were washed 3 times. Following 1 hour at RT, the wells were washed 3 times, incubated with biotinylated Anti-6×His-Tag Ab (Invitrogen, Carlsbad, CA, cat. no. MAI-21315-BTIN) at 1:1000 in Standard Diluent for 1 hour, washed 3 times, incubated for 30 minutes with poly-HRP Streptavidin (Thermo Fisher Scientific, Waltham, MA, cat. no. N200), washed 4 times, incubated with TMB substrate (Thermo Fisher Scientific, Waltham, MA, cat. no. N301) for 2-5 minutes, followed by addition of ELISA Stop Solution (Invitrogen, Carlsbad, CA, cat. no. SS04). Absorbance 450 nm was measured. Data points were normalized to the isotype Control Ab values at each concentration and reported as % Absorbance 450 nm normalized to Control Ab. Non-linear regression analysis was used to fit curves (4-parameter) to the data using GraphPad Prism version 9.0.2 (GraphPad Software, LLC, San Diego, CA).
Freeze-thaw stability was tested on a small aliquot of each chimera antibody by overnight storage at −80° C. followed by thaw on ice, repeated three times. […] IC50s were calculated by non-linear regression analysis curve-fitting (4-parameter) of the ELISA data (FIG. 5) using GraphPad Prism version 9.0.2 (GraphPad Software, LLC, San Diego, CA). […]

Row | Molecule | Selected Human α5 Specific [1] | Absorbance 450 nm Mouse α5β1 [2] | Absorbance 450 nm Human α4β1 (rh-α4β1) | also measured
1 | B1 | Yes | 0.049 | 0.0558 | binding of rh-α5β1 complexed with antibody to A2-7A05 on the sensor (rh-α5β1; antibody preincubated with rh-α5β1, A2-7A05 immobilized on sensor): able to bind; binding of rh-α5β1 complexed with antibody to A-15B08 on the sensor (rh-α5β1; antibody preincubated with rh-α5β1, A-15B08 immobilized on sensor): not able to bind; binding of rh-α5β1 complexed with antibody to C-14D12 on the sensor (rh-α5β1; antibody preincubated with rh-α5β1, C-14D12 immobilized on sensor): not able to bind; Response (nm) (rh-α5β1; immobilized mAb A2-7A05): 0.07 nm; % Response (rh-α5β1; immobilized mAb A2-7A05): 198.65%; Response (nm) (rh-α5β1; immobilized mAb A-15B08): 0.10 nm; % Response (rh-α5β1; immobilized mAb A-15B08): 50.05%; Response (nm) (rh-α5β1; immobilized mAb C-14D12): 0.12 nm; % Response (rh-α5β1; immobilized mAb C-14D12): 53.28%; epitope group (rh-α5β1; two epitope groups among 6 antibodies): second group
2 | B2 | Yes | 0.0619 | 0.0608 | 
3 | B3 | Yes | 0.0551 | 0.0609 | 
4 | B4 | Yes | 0.0515 | 0.0595 | 
5 | B5 |  |  |  | class of FN binding blocker [3]: strong blockers of FN binding

From patent US20240279345A1, “ALPHA 5 BETA 1 INTEGRIN BINDING AGENTS AND USES THEREOF” (PASITHEA THERAPEUTICS CORP., priority 2021, published 2024)
